These results are taken from patent US20220298218A1 (ANTAG THERAPEUTICS, published 2022).

Where no end group is shown, it is not given here. [ ]: non-standard residue; d: D form. The star is where a group is joined. C16 diacid = O=C(O)CCCCCCCCCCCCCCC(=O)*; Aib = CC(C)(N)C(=O)O

The test has as its target T1, human GIP receptor (human, UniProt P48546 22-466).
T1 sequence (looked up): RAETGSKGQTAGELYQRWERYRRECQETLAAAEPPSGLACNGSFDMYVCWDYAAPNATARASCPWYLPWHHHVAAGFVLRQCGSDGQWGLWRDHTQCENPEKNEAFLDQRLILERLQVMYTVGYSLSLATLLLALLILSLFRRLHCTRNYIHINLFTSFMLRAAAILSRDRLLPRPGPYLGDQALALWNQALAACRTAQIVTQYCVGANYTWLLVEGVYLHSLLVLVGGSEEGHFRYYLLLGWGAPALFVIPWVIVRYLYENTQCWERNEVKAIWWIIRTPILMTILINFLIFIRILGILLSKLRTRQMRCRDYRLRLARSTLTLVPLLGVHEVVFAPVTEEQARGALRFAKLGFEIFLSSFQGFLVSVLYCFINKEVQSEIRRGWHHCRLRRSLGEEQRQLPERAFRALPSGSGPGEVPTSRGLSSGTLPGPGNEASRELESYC
Kind of test: cell-based or functional assay.

B1: AT637 (peptide)
peptide: [Aib]GTFISDYSIAMDKIK(C16 diacid)QQDFVNWLLAQKPSSGAPPPS-OH
modifications: N-terminus assumed
SMILES: CC[C@H](C)[C@H](NC(=O)[C@H](CO)NC(=O)[C@H](Cc1ccc(O)cc1)NC(=O)[C@H](CC(=O)O)NC(=O)[C@H](CO)NC(=O)[C@@H](NC(=O)[C@H](Cc1ccccc1)NC(=O)[C@@H](NC(=O)CNC(=O)C(C)(C)N)[C@@H](C)O)[C@@H](C)CC)C(=O)N[C@@H](C)C(=O)N[C@@H](CCSC)C(=O)N[C@@H](CC(=O)O)C(=O)N[C@@H](CCCCN)C(=O)N[C@H](C(=O)N[C@@H](CCCCNC(=O)CCCCCCCCCCCCCCC(=O)O)C(=O)N[C@@H](CCC(N)=O)C(=O)N[C@@H](CCC(N)=O)C(=O)N[C@@H](CC(=O)O)C(=O)N[C@@H](Cc1ccccc1)C(=O)N[C@H](C(=O)N[C@@H](CC(N)=O)C(=O)N[C@@H](Cc1c[nH]c2ccccc12)C(=O)N[C@@H](CC(C)C)C(=O)N[C@@H](CC(C)C)C(=O)N[C@@H](C)C(=O)N[C@@H](CCC(N)=O)C(=O)N[C@@H](CCCCN)C(=O)N1CCC[C@H]1C(=O)N[C@@H](CO)C(=O)N[C@@H](CO)C(=O)NCC(=O)N[C@@H](C)C(=O)N1CCC[C@H]1C(=O)N1CCC[C@H]1C(=O)N1CCC[C@H]1C(=O)N[C@@H](CO)C(=O)O)C(C)C)[C@@H](C)CC
For the molecule B1, the “cAMP agonism % Emax” value is 0%, the “cAMP antagonism” value was found to be 2.23 nM, the “cAMP antagonism % inhib” value amounted to 89% and the “cAMP antagonism pIC50” value was found to be 8.7.

B2: AT638 (peptide)
peptide: PGTFISDYSIAMDKIK(C16 diacid)QQDFVNWLLAQKPSSGAPPPS-OH
modifications: N-terminus assumed
SMILES: CC[C@H](C)[C@H](NC(=O)[C@H](CO)NC(=O)[C@H](Cc1ccc(O)cc1)NC(=O)[C@H](CC(=O)O)NC(=O)[C@H](CO)NC(=O)[C@@H](NC(=O)[C@H](Cc1ccccc1)NC(=O)[C@@H](NC(=O)CNC(=O)[C@@H]1CCCN1)[C@@H](C)O)[C@@H](C)CC)C(=O)N[C@@H](C)C(=O)N[C@@H](CCSC)C(=O)N[C@@H](CC(=O)O)C(=O)N[C@@H](CCCCN)C(=O)N[C@H](C(=O)N[C@@H](CCCCNC(=O)CCCCCCCCCCCCCCC(=O)O)C(=O)N[C@@H](CCC(N)=O)C(=O)N[C@@H](CCC(N)=O)C(=O)N[C@@H](CC(=O)O)C(=O)N[C@@H](Cc1ccccc1)C(=O)N[C@H](C(=O)N[C@@H](CC(N)=O)C(=O)N[C@@H](Cc1c[nH]c2ccccc12)C(=O)N[C@@H](CC(C)C)C(=O)N[C@@H](CC(C)C)C(=O)N[C@@H](C)C(=O)N[C@@H](CCC(N)=O)C(=O)N[C@@H](CCCCN)C(=O)N1CCC[C@H]1C(=O)N[C@@H](CO)C(=O)N[C@@H](CO)C(=O)NCC(=O)N[C@@H](C)C(=O)N1CCC[C@H]1C(=O)N1CCC[C@H]1C(=O)N1CCC[C@H]1C(=O)N[C@@H](CO)C(=O)O)C(C)C)[C@@H](C)CC
As for B2, the “cAMP agonism % Emax” value amounted to 0%, the “cAMP antagonism” value turned out to be 14.7 nM, the “cAMP antagonism % inhib” value came to 85% and the “cAMP antagonism pIC50” value is 7.8.

B3: AT633 (peptide)
peptide: Ac-EGTFISDYSIAMDKIK(C16 diacid)QQDFVNWLLAQKPSSGAPPPS-OH
SMILES: CC[C@H](C)[C@H](NC(=O)[C@H](CO)NC(=O)[C@H](Cc1ccc(O)cc1)NC(=O)[C@H](CC(=O)O)NC(=O)[C@H](CO)NC(=O)[C@@H](NC(=O)[C@H](Cc1ccccc1)NC(=O)[C@@H](NC(=O)CNC(=O)[C@H](CCC(=O)O)NC(C)=O)[C@@H](C)O)[C@@H](C)CC)C(=O)N[C@@H](C)C(=O)N[C@@H](CCSC)C(=O)N[C@@H](CC(=O)O)C(=O)N[C@@H](CCCCN)C(=O)N[C@H](C(=O)N[C@@H](CCCCNC(=O)CCCCCCCCCCCCCCC(=O)O)C(=O)N[C@@H](CCC(N)=O)C(=O)N[C@@H](CCC(N)=O)C(=O)N[C@@H](CC(=O)O)C(=O)N[C@@H](Cc1ccccc1)C(=O)N[C@H](C(=O)N[C@@H](CC(N)=O)C(=O)N[C@@H](Cc1c[nH]c2ccccc12)C(=O)N[C@@H](CC(C)C)C(=O)N[C@@H](CC(C)C)C(=O)N[C@@H](C)C(=O)N[C@@H](CCC(N)=O)C(=O)N[C@@H](CCCCN)C(=O)N1CCC[C@H]1C(=O)N[C@@H](CO)C(=O)N[C@@H](CO)C(=O)NCC(=O)N[C@@H](C)C(=O)N1CCC[C@H]1C(=O)N1CCC[C@H]1C(=O)N1CCC[C@H]1C(=O)N[C@@H](CO)C(=O)O)C(C)C)[C@@H](C)CC
For B3, the “cAMP agonism % Emax” value came to 23% and the “cAMP antagonism pIC50” value was about 8.8.

B4: AT639 (peptide)
peptide: VETFISDYSIAMDKIK(C16 diacid)QQDFVNWLLAQKPSSGAPPPS-OH
modifications: N-terminus assumed
SMILES: CC[C@H](C)[C@H](NC(=O)[C@H](CO)NC(=O)[C@H](Cc1ccc(O)cc1)NC(=O)[C@H](CC(=O)O)NC(=O)[C@H](CO)NC(=O)[C@@H](NC(=O)[C@H](Cc1ccccc1)NC(=O)[C@@H](NC(=O)[C@H](CCC(=O)O)NC(=O)[C@@H](N)C(C)C)[C@@H](C)O)[C@@H](C)CC)C(=O)N[C@@H](C)C(=O)N[C@@H](CCSC)C(=O)N[C@@H](CC(=O)O)C(=O)N[C@@H](CCCCN)C(=O)N[C@H](C(=O)N[C@@H](CCCCNC(=O)CCCCCCCCCCCCCCC(=O)O)C(=O)N[C@@H](CCC(N)=O)C(=O)N[C@@H](CCC(N)=O)C(=O)N[C@@H](CC(=O)O)C(=O)N[C@@H](Cc1ccccc1)C(=O)N[C@H](C(=O)N[C@@H](CC(N)=O)C(=O)N[C@@H](Cc1c[nH]c2ccccc12)C(=O)N[C@@H](CC(C)C)C(=O)N[C@@H](CC(C)C)C(=O)N[C@@H](C)C(=O)N[C@@H](CCC(N)=O)C(=O)N[C@@H](CCCCN)C(=O)N1CCC[C@H]1C(=O)N[C@@H](CO)C(=O)N[C@@H](CO)C(=O)NCC(=O)N[C@@H](C)C(=O)N1CCC[C@H]1C(=O)N1CCC[C@H]1C(=O)N1CCC[C@H]1C(=O)N[C@@H](CO)C(=O)O)C(C)C)[C@@H](C)CC
Turning to B4, the “cAMP agonism % Emax” value was determined as 0%, the “cAMP antagonism” value worked out at 66.8 nM, the “cAMP antagonism % inhib” value is 100% and the “cAMP antagonism pIC50” value worked out at 7.2.

B5: AT635 (peptide)
peptide: Ac-EGTFISEYSIAMEKIK(C16 diacid)QQDFVNWLLAQKPSSGAPPPS-OH
SMILES: CC[C@H](C)[C@H](NC(=O)[C@H](CO)NC(=O)[C@H](Cc1ccc(O)cc1)NC(=O)[C@H](CCC(=O)O)NC(=O)[C@H](CO)NC(=O)[C@@H](NC(=O)[C@H](Cc1ccccc1)NC(=O)[C@@H](NC(=O)CNC(=O)[C@H](CCC(=O)O)NC(C)=O)[C@@H](C)O)[C@@H](C)CC)C(=O)N[C@@H](C)C(=O)N[C@@H](CCSC)C(=O)N[C@@H](CCC(=O)O)C(=O)N[C@@H](CCCCN)C(=O)N[C@H](C(=O)N[C@@H](CCCCNC(=O)CCCCCCCCCCCCCCC(=O)O)C(=O)N[C@@H](CCC(N)=O)C(=O)N[C@@H](CCC(N)=O)C(=O)N[C@@H](CC(=O)O)C(=O)N[C@@H](Cc1ccccc1)C(=O)N[C@H](C(=O)N[C@@H](CC(N)=O)C(=O)N[C@@H](Cc1c[nH]c2ccccc12)C(=O)N[C@@H](CC(C)C)C(=O)N[C@@H](CC(C)C)C(=O)N[C@@H](C)C(=O)N[C@@H](CCC(N)=O)C(=O)N[C@@H](CCCCN)C(=O)N1CCC[C@H]1C(=O)N[C@@H](CO)C(=O)N[C@@H](CO)C(=O)NCC(=O)N[C@@H](C)C(=O)N1CCC[C@H]1C(=O)N1CCC[C@H]1C(=O)N1CCC[C@H]1C(=O)N[C@@H](CO)C(=O)O)C(C)C)[C@@H](C)CC
For B5, the “cAMP agonism % Emax” value came to 5%, the “cAMP antagonism” value worked out at 1.12 nM, the “cAMP antagonism % inhib” value was 87% and the “cAMP antagonism pIC50” value came to 9.

B6: AT636 (peptide)
peptide: VGTFISDYSIAMDKIK(C16 diacid)QQDFVNWLLAQKPSSGAPPPS-OH
modifications: N-terminus assumed
SMILES: CC[C@H](C)[C@H](NC(=O)[C@H](CO)NC(=O)[C@H](Cc1ccc(O)cc1)NC(=O)[C@H](CC(=O)O)NC(=O)[C@H](CO)NC(=O)[C@@H](NC(=O)[C@H](Cc1ccccc1)NC(=O)[C@@H](NC(=O)CNC(=O)[C@@H](N)C(C)C)[C@@H](C)O)[C@@H](C)CC)C(=O)N[C@@H](C)C(=O)N[C@@H](CCSC)C(=O)N[C@@H](CC(=O)O)C(=O)N[C@@H](CCCCN)C(=O)N[C@H](C(=O)N[C@@H](CCCCNC(=O)CCCCCCCCCCCCCCC(=O)O)C(=O)N[C@@H](CCC(N)=O)C(=O)N[C@@H](CCC(N)=O)C(=O)N[C@@H](CC(=O)O)C(=O)N[C@@H](Cc1ccccc1)C(=O)N[C@H](C(=O)N[C@@H](CC(N)=O)C(=O)N[C@@H](Cc1c[nH]c2ccccc12)C(=O)N[C@@H](CC(C)C)C(=O)N[C@@H](CC(C)C)C(=O)N[C@@H](C)C(=O)N[C@@H](CCC(N)=O)C(=O)N[C@@H](CCCCN)C(=O)N1CCC[C@H]1C(=O)N[C@@H](CO)C(=O)N[C@@H](CO)C(=O)NCC(=O)N[C@@H](C)C(=O)N1CCC[C@H]1C(=O)N1CCC[C@H]1C(=O)N1CCC[C@H]1C(=O)N[C@@H](CO)C(=O)O)C(C)C)[C@@H](C)CC
For B6, the “cAMP agonism % Emax” value came to 0%, the “cAMP antagonism” value came to 1.71 nM, the “cAMP antagonism % inhib” value is 87% and the “cAMP antagonism pIC50” value came out at 8.8.
